Test results: paper PMC4470507

Experiments:
[1] = biological target: PfCCT MΔK^R681H, R681H point mutant of the second catalytic domain construct of Plasmodium falciparum CTP:phosphocholine cytidylyltransferase (528–795, Δ720–737) (Plasmodium falciparum); test: native MS; native electrospray, QTOF, positive ion mode; 5 mM NH4HCO3 pH 7.2; gel filtered protein at 0.4 μM monomer concentration; source temperature 80°C; dimer to monomers; 3 samples from different expressions
[2] = biological target: PfCCT MΔK^WT, second catalytic domain construct of Plasmodium falciparum CTP:phosphocholine cytidylyltransferase (528–795, Δ720–737) (Plasmodium falciparum); test: as above

Substance	fold decrease of the dimer:monomer abundance ratio against PfCCT MΔK^WT [1]	stoichiometry N [2]
PfCCT MΔK^R681H, R681H point mutant of the second catalytic domain construct of Plasmodium falciparum CTP:phosphocholine cytidylyltransferase (528–795, Δ720–737) (domain or fragment)	20 times lower	
PfCCT MΔK^WT, second catalytic domain construct of Plasmodium falciparum CTP:phosphocholine cytidylyltransferase (528–795, Δ720–737) (domain or fragment)		2
